Target: the molecule itself
Assay: high-speed AFM; 10–200 μM TIR_(MyD88) adsorbed on mica for 10 min; 20 mM HEPES pH 7.0, 50 mM NaCl, 10 mM DTT; room temperature

B1: TIR domain of MyD88 (TIR_(MyD88); residues 153–296) (domain or fragment, human, UniProt Q99836-1 153-296, looked up)
chain: PLGHMPERFDAFICYCPSDIQFVQEMIRQLEQTNYRLKLCVSDRDVLPGTCVWSIASELIEKRCRRMVVVVSDDYLQSKECDFQTKFALSLSPGAHQKRLIPIKYKAMKKEFPSILRFITVCDYTNPCTKSWFWTRLAKALSLP
notes: human MyD88, TIR domain, amino acids 153–296; Self-assembles into antiparallel double-stranded filaments, double-layered rings and cylindrical fibers; also called WT TIR_(MyD88); Toll/interleukin-1 receptor domain of MyD88
For B1, the “stoichiometry N” value was 58.
